Measured values: patent publication US20080009025A1, “PROTEIN KINASE REGULATION” (priority 1999, published 2008)

Legend:
[1] = biological target: T1, Myc-PDK1 (Homo sapiens, UniProt O15530); assay: Glutathione-Sepharose pull-down of Myc-PDK1 with GST-PIF from 293 cells; format: binding
T1 construct: expressed in transfected cells; host or cells: 293 cells
T1 sequence (O15530 1-556): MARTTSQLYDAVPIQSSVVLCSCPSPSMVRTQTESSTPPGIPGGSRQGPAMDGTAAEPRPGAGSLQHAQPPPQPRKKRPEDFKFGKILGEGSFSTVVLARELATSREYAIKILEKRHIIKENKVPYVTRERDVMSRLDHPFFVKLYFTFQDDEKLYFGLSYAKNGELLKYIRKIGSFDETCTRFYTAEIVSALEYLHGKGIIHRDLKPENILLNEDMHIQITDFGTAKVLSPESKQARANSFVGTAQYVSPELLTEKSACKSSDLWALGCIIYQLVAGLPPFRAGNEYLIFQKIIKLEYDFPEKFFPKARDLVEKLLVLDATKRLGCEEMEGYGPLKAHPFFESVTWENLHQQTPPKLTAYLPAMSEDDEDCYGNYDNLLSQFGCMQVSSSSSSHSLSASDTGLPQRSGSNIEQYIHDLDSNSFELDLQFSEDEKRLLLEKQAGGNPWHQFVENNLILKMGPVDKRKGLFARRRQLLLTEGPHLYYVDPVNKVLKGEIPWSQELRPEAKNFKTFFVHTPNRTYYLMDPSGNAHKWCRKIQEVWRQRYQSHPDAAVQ
Experimental: FIG. 9. Effect of mutation of conserved residues in the PIF-binding pocket of PDK1 on the ability to interact with PIF. 293 cells were transiently transfected with DNA constructs expressing GST-PIF and either wild type Myc-PDK1 or the indicated mutants of PDK1. 36 h post transfection the cells were lysed and GST-PIF purified by affinity chromatography on glutathione-Sepharose beads. 2 μg of each protein was electrophoresed on a 10% SDS/polyacrylamide gel and either stained with Coomassie blue (A and E) or immunoblotted using an anti Myc antibody to detect Myc-PDK1 (B and F). To establish that the wild type PDK1 and mutant proteins were expressed at a similar level, 10 μg of total cell lysate was electrophoresed on a 10% SDS/polyacrylamide gel and immunoblotted using anti-Myc antibodies (C and G). Duplicates of each condition are shown. Similar results were obtained in 3 to 5 separate experiments. […]
A pEBG2T plasmid encoding GST fused to the last 77 residues of PRK2 termed GST-PIF (10 μg) and pCMV5 plasmid expressing Myc-PDK1 wild type or the indicated mutants of PDK1 (10 μg), were co-transfected into a 10 cm diameter dish of 293 cells using a modified calcium phosphate method. […] The gels were either stained with Coomassie blue, or analysed by immunoblotting with anti Myc antibodies.

[2] = test system: PKBα; assay: IGF1-induced activation and Ser473 phosphorylation of HA-PKBα in co-transfected 293 cells; format: cell-based, human
Experimental: FIG. 4. […] 293 cells were co-transfected with constructs expressing the wild type full length HA-PKBα with either GST-PIF or GST. 24 h post transfection the cells were serum starved for 16 h and then stimulated for 15 min with 100 nM IGF1. The cells were lysed and HA-PKBα was immunoprecipitated and assayed as described in Methods. Protein from each lysate (10 μg) was electrophoresed on a 10% SDS/polyarylamide gel and immunoblotted using HA-antibody or the S473-P antibody. The HA-PKBα activities shown are the averages ±SEM for a single experiment carried out in triplicate, similar results were obtained in 3 separate experiments.
293 cells cultured on 10 cm diameter dishes in Dulbecco's Modified Eagle's Medium containing 10% (by vol) foetal bovine serum, were transfected with 2 μg of DNA construct encoding either wild type or mutant HA-p70 S6K or HA-PKBα, and 10 μg of DNA construct encoding either GST-PIF, GST-F977A-PIF, GST, Myc-PDK1, kinase-dead Myc-PDK1, or the empty pCMV5 vector using a modified calcium phosphate method. 24 h post transfection the cells were deprived of serum for 16 h, and exposed to IGF1 (100 nM) for the time indicated. […] The protein concentrations of the lysates were determined by the Bradford method. […]

complex with wild type PDK1 [1]: a complex was readily observed
Substance: GST-PIF: glutathione S-transferase fused to the last 77 residues of PRK2 (PIF)
IGF1-induced phosphorylation of HA-PKBα at Ser473 [2]: did not inhibit or potentiate
